Consider four sequences from article PMC2780912.

For data set [1], the target named is HCV E2 on E2-CT26 cells (Hepatitis C virus (genotype 1a)) (UniProt P27958). The data set can be described thus: flow cytometry. The following applies: Flow cytometry: 250 nM aptamer, 1e6 cells, 37 C 15 min; selection buffer 25 mM Tris-HCl, 50 mM KCl, 200 mM NaCl, 0.2 mM EDTA, 5% glycerol, 0.5 mM DTT (pH not …). A general note: In flow cytometry, cells or beads pass a laser one at a time.

The target of data set [2] is GST-E2 (Hepatitis C virus) (UniProt P27958). The data set can be described thus: competition (flow cytometry). To be noted: Flow cytometry: 250 nM aptamer, 1e6 cells, 37 C 15 min; selection buffer 25 mM Tris-HCl, 50 mM KCl, 200 mM NaCl, 0.2 mM EDTA, 5% glycerol, 0.5 mM DTT (pH not …); scale: % inhibition of E2 binding to Huh7.5.1 cells.

In data set [1], CGCCGTATTAAGATTGGGAGACCTGGTAGA [ZE3] registered a Kd of 3.22 nM.
As for GAATGAGGAATAATCTAGCTCCTTCGCTGA [ZE2], the binding signal in data set [2] is 80. Further, the Kd in data set [1] amounted to 1.05 nM.
Consider GGGCCTCGATTTAGTTCGCGGCCATAGGGC [ZE4], for which the Kd in data set [1] is 8.85 nM.
For the sequence TCCATTCATGTAACGAACATAGTTTTGGCA [ZE5], in data set [1], the Kd came to 4.29 nM.

The Kd is the free concentration of one partner at which half of the binding sites on the other are occupied at equilibrium, for simple one-to-one binding.
